Where a chain is given by its changes, count along the chain named.
Molecular target: human PD-L1 (PD-L1 aAPC/CHO-K1 cells) (human, UniProt Q9NZQ7 19-290)
Experiment: cell-based or functional assay

human PD-L1 (PD-L1 aAPC/CHO-K1 cells), sequence (Q9NZQ7 19-290): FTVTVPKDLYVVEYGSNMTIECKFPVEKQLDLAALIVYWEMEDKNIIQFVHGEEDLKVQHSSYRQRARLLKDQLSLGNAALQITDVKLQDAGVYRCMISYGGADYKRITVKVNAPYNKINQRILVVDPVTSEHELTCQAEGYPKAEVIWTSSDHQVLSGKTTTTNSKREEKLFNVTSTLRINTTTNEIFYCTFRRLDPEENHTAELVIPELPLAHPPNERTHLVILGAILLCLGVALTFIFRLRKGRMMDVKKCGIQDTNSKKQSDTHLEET

B1: PDL1HCv1 (antibody, human IgG1, kappa, N297A, V domains shown)
VH: EVQLVQSGAEVKKPGASVKVSCKASGYIFTGYGITWVRQAPGQGLEWMGEIFPRRVQTYYSEKFKGRVTMTTDTSTSTAYMELRSLRSDDTAVYYCARDYDPYFALDYWGQGTTVTVSS
VL: DIQMTQSPSSLSASVGDRVTITCRASQDVSTAVDWYQQKPGKAPKLLIYSASYRYTGVPDRFSGSGSGTDFTFTISSLQPEDIATYYCQQHYSIPFTFGQGTKLEIKR
Question: How did the “Bottom (PD-1/PD-L1 blockade bioassay)” value turn out when B1 was run?
Answer: Its value is 28900.

Question: What about the “Log EC50 (PD-1/PD-L1 blockade bioassay)” value of the same binder?
Answer: The value was -0.323.

Question: And the “Top (PD-1/PD-L1 blockade bioassay)” value?
Answer: Its value is 113000.

B2: PDL1HCv5 (antibody, human IgG1, kappa, N297A, V domains shown)
VH: B1 VH with T72A
VL: B1 VL
Question: For B2, which “Bottom (PD-1/PD-L1 blockade bioassay)” value is on record?
Answer: The value was 27800.

Question: What about the “Log EC50 (PD-1/PD-L1 blockade bioassay)” value of the same binder?
Answer: The value was -0.111.

Question: And the “Top (PD-1/PD-L1 blockade bioassay)” value?
Answer: Its value is 110000.

From patent US20220220204A1 (NANJING GENSCRIPT BIOTECH, published 2022)
